Test results as given in paper PMC5384220 (2017).

Target: T1, His-KDM4A_(1–359)-Bio (human, UniProt O75164 1-359, biotin on the AviTag (>95% biotinylation))
T1 chain: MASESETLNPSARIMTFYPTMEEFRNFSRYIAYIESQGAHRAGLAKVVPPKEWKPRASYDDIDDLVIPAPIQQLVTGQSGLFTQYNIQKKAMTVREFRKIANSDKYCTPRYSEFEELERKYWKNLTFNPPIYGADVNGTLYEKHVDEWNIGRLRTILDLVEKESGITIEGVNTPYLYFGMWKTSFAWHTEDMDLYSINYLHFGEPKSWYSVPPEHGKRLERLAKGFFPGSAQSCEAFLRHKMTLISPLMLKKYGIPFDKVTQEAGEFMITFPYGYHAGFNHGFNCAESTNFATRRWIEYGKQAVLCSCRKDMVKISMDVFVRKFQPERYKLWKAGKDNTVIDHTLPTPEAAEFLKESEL
Experiment: BLI

B1: H3(1–15)K9me3 (peptide)
peptide: ARTKQTARKSTGGKA
modifications: trimethyl-lysine at 9
  Kd: 110 µM
